Results: article PMC6625990, “Structural underpinnings of Ric8A function as a G-protein α-subunit chaperone and guanine-nucleotide exchange factor” (Nature Communications, 2019)
Where a chain is given by its changes, count along the chain named. Names may count otherwise.

B1: bovine Ric8A1–492, Q5E9J8 F169R (protein)
chain: MEPRAVADALETGEEDVVMEALRAYNRENSQSFTFDDAQQEDRKRLAKLLVSVLEQGLPPSRRVIWLQSIRILSRDRSCLDSFTSRRSLQALACYAGISASQGSVPEPLNMDVVLESLKCLCNLVLSSPVAQALAAEAGLVVRLAERVGLCRQSSFPHDVQFFDLRLLRLLTALRTDVRQQLFQELQGVRLLTRALELTLGMTEGERHPELLPPQETERAMEILKVLFNITFDSIKREVDEEDAALYRHLGTLLRHCVMLAAAGDRTEELHGHAVNLLGNLPVKCLDVLLTLEPHEGSLEFLGVNMDVIRVLLSFMEKRLHQTHRLKESVAPVLSVLTECARMHRPARKFLKAQVLPPLRDVRTRPEVGELLRNKLVRLMTHLDTDVKRVAAEFLFVLCSESVPRFIKYTGYGNAAGLLAARGLMAGGRPEGQYSEDEDTDTDEYKEAKASINPVTGRVEEKPPNPMEGMTEEQKEHEAMKLVNMFDKLSRH
B2: bovine Ric8A1–492, Q5E9J8 A173W (protein)
chain: B1 chain with R169F, A173W

Key:
[1] = target: full-length Avi-tagged Gαt, P04695; assay: BLI (steady-state binding curve); details: chain shown with the change; Avi-tagged Gαt coupled to a streptavidin biosensor; parent: 24 nM
Chain of full-length Avi-tagged Gαt, P04695 (P04695 whole entry): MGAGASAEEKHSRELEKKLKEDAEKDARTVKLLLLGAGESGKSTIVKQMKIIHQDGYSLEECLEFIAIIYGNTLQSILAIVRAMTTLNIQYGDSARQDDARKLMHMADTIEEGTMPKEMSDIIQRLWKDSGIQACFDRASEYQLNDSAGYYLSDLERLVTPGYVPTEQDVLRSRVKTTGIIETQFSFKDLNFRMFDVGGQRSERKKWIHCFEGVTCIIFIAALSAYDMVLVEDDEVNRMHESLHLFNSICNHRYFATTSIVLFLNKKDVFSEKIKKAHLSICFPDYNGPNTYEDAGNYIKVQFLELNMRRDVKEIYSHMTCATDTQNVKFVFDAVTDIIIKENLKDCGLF

[2] = target: full-length Avi-tagged Gαt, P04695; assay: BLI (steady-state); details: chain shown with the change

Binder	Kd [1] [µM]	Kd [2] [µM]
B1	1.7	1.8
B2	> 10	> 10
